Measurements taken from the supplement of paper PMC11246515.
± gives the standard deviation of the averaged measurements.

Assay: total protein half-life in vivo (active degradation + dilution); higher = more stable protein
[1] = E. coli NCM3722 delta-clpP delta-lon delta-hslV, growth: N-lim chemostat, doubling time 6 h
[2] = E. coli NCM3722 delta-clpP, growth: N-lim chemostat, doubling time 6 h
[3] = E. coli NCM3722 delta-hslV, growth: N-lim chemostat, doubling time 6 h
[4] = E. coli NCM3722 delta-lon, growth: N-lim chemostat, doubling time 6 h
[5] = E. coli NCM3722 delta-smpB, growth: N-lim chemostat, doubling time 6 h
[6] = wild type E. coli NCM3722, growth: C-lim chemostat, doubling time 3 h
[7] = wild type E. coli NCM3722, growth: C-lim chemostat, doubling time 6 h
[8] = wild type E. coli NCM3722, growth: C-lim chemostat, doubling time 12 h
[9] = wild type E. coli NCM3722, growth: N-lim chemostat, doubling time 6 h
[10] = wild type E. coli NCM3722, growth: N-lim chemostat, doubling time 12 h
[11] = wild type E. coli NCM3722, growth: P-lim chemostat, doubling time 6 h
[12] = wild type E. coli NCM3722, growth: P-lim chemostat, doubling time 12 h

Sequence	total protein half-life in vivo [1]	total protein half-life in vivo [2]	total protein half-life in vivo [3]	total protein half-life in vivo [4]	total protein half-life in vivo [5]	total protein half-life in vivo [6]	total protein half-life in vivo [7]	total protein half-life in vivo [8]	total protein half-life in vivo [9]	total protein half-life in vivo [10]	total protein half-life in vivo [11]	total protein half-life in vivo [12]
MSVVPVADVLQGRVAVDSEVTVRGWVRTRRDSKAGISFLAVYDGSCFDPVQAVINNSLPNYNEDVLRLTTGCSVIVTGKVVASPGQGQQFEIQASKVEVAGWVEDPDTYPMAAKRHSIEYLREVAHLRPRTNLIGAVARVRHTLAQALHRFFNEQGFFWVSTPLITASDTEGAGEMFRVSTLDLENLPRNDQGKVDFDKDFFGKESFLTVSGQLNGETYACALSKIYTFGPTFRAENSNTSRHLAEFWMLEPEVAFANLNDIAGLAEAMLKYVFKAVLEERADDMKFFAERVDKDAVSRLERFIEADFAQVDYTDAVTILENCGRKFENPVYWGVDLSSEHERYLAEEHFKAPVVVKNYPKDIKAFYMRLNEDGKTVAAMDVLAPGIGEIIGGSQREERLDVLDERMLEMGLNKEDYWWYRDLRRYGTVPHSGFGLGFERLIAYVTGVQNVRDVIPFPRTPRNASF [P0A8M0]	5.93 ± 0.36 h	5.65 ± 0.14 h	5.29 ± 0.32 h	6.11 ± 0.23 h	5.45 ± 0.33 h	3.23 ± 0.51 h	6.37 ± 0.33 h	11.55 ± 0.055 h	5.338 ± 0.0091 h	9.553 ± 0.028 h	6.83 ± 0.74 h	12.9 ± 0.18 h
MINSPRVCIQVQSVYIEAQSSPDNERYVFAYTVTIRNLGRAPVQLLGRYWLITNGNGRETEVQGEGVVGVQPLIAPGEEYQYTSGAIIETPLGTMQGHYEMIDENGVPFSIDIPVFRLAVPTLIH	6.35 ± 0.25 h	1.66 ± 0.39 h	0.615 h	1.4 h	1.24 ± 0.41 h	1.4 ± 0.14 h	2.43 h	3.11 ± 0.32 h	1.65 h	1.98 h	2.29 ± 0.19 h	4.37 ± 0.13 h
MDDQLKQSALDFHEFPVPGKIQVSPTKPLATQRDLALAYSPGVAAPCLEIEKDPLKAYKYTARGNLVAVISNGTAVLGLGNIGALAGKPVMEGKGVLFKKFAGIDVFDIEVDELDPDKFIEVVAALEPTFGGINLEDIKAPECFYIEQKLRERMNIPVFHDDQHGTAIISTAAILNGLRVVEKNISDVRMVVSGAGAAAIACMNLLVALGLQKHNIVVCDSKGVIYQGREPNMAETKAAYAVVDDGKRTLDDVIEGADIFLGCSGPKVLTQEMVKKMARAPMILALANPEPEILPPLAKEVRPDAIICTGRSDYPNQVNNVLCFPFIFRGALDVGATAINEEMKLAAVRAIAELAHAEQSEVVASAYGDQDLSFGPEYIIPKPFDPRLIVKIAPAVAKAAMESGVATRPIADFDVYIDKLTEFVYKTNLFMKPIFSQARKAPKRVVLPEGEEARVLHATQELVTLGLAKPILIGRPNVIEMRIQKLGLQIKAGVDFEIVNNESDPRFKEYWTEYFQIMKRRGVTQEQAQRALISNPTVIGAIMVQRGEADAMICGTVGDYHEHFSVVKNVFGYRDGVHTAGAMNALLLPSGNTFIADTYVNDEPDAEELAEITLMAAETVRRFGIEPRVALLSHSNFGSSDCPSSSKMRQALELVRERAPELMIDGEMHGDAALVEAIRNDRMPDSSLKGSANILVMPNMEAARISYNLLRVSSSEGVTVGPVLMGVAKPVHVLTPIASVRRIVNMVALAVVEAQTQPL	5.85 ± 0.24 h	6.35 ± 2.2 h	5.84 ± 0.13 h	7.1 ± 0.61 h	5.6 ± 0.15 h	3.13 ± 0.15 h	5.948 ± 0.055 h	10.7 ± 0.31 h	5.97 ± 0.3 h	10.983 ± 0.005 h	6.35 ± 0.11 h	12.2 ± 1.3 h
MNTTPSQRLGFLHHIRLVPLFACILGGILVLFALSSALAGYFLWQADRDQRDVTAEIEIRTGLANSSDFLRSARINMIQAGAASRIAEMEAMKRNIAQAESEIKQSQQGYRAYQNRPVKTPADEALDTELNQRFQAYITGMQPMLKYAKNGMFEAIINHESEQIRPLDNAYTDILNKAVKIRSTRANQLAELAHQRTRLGGMFMIGAFVLALVMTLITFMVLRRIVIRPLQHAAQRIEKIASGDLTMNDEPAGRNEIGRLSRHLQQMQHSLGMTVGTVRQGAEEIYRGTSEISAGNADLSSRTEEQAAAIEQTAASMEQLTATVKQNADNAHHASKLAQEASIKASDGGQTVSGVVKTMGAISTSSKKISEITAVINSIAFQTNILALNAAVEAARAGEQGRGFAVVASEVRTLASRSAQAAKEIEGLISESVRLIDLGSDEVATAGKTMSTIVDAVASVTHIMQEIAAASDEQSRGITQVSQAISEMDKVTQQNASLVEEASAAAVSLEEQAARLTEAVDVFRLHKHSVSAEPRGAGEPVSFATV	–	–	–	–	–	2.39 ± 0.0043 h	4.42 ± 0.23 h	6.36 ± 0.25 h	–	–	–	–
MKRLSITVRLTLLFILLLSVAGAGIVWTLYNGLASELKWRDDTTLINRTAQIKQLLIDGVNPDTLPVYFNRMMDVSQDILIIHGDSINKIVNRTNVSDGMLNNIPASETISAAGIYRSIINDTEIDALRINIDEVSPSLTVTVAKLASARHNMLEQYKINSIIICIVAIVLCSVLSPLLIRTGLREIKKLSGVTEALNYNDSREPVEVSALPRELKPLGQALNKMHHALVKDFERLSQFADDLAHELRTPINALLGQNQVTLSQTRSIAEYQKTIAGNIEELENISRLTENILFLARADKNNVLVKLDSLSLNKEVENLLDYLEYLSDEKEICFKVECNQQIFADKILLQRMLSNLIVNAIRYSPEKSRIHITSFLDTNSYLNIDIASPGTKINEPEKLFRRFWRGDNSRHSVGQGLGLSLVKAIAELHGGSATYHYLNKHNVFRITLPQRN	5.59 ± 0.15 h	6.99 ± 0.076 h	6.03 ± 0.26 h	–	5.75 ± 0.48 h	3.13 ± 0.66 h	7.13 ± 0.64 h	10.1 h	6.174 ± 0.057 h	12.98 ± 0.022 h	5.63 ± 0.89 h	13.4 ± 0.56 h
MSLHSPGKAFRAALTKENPLQIVGTINANHALLAQRAGYQAIYLSGGGVAAGSLGLPDLGISTLDDVLTDIRRITDVCSLPLLVDADIGFGSSAFNVARTVKSMIKAGAAGLHIEDQVGAKRCGHRPNKAIVSKEEMVDRIRAAVDAKTDPDFVIMARTDALAVEGLDAAIERAQAYVEAGAEMLFPEAITELAMYRQFADAVQVPILANITEFGATPLFTTDELRSAHVAMALYPLSAFRAMNRAAEHVYNVLRQEGTQKSVIDTMQTRNELYESINYYQYEEKLDNLFARSQVK	3.59 ± 0.66 h	–	–	–	–	–	4.13 ± 0.31 h	5.82 ± 0.58 h	4.7 h	–	–	–
MVDQVKVVADDQAPAEQSLRRNLTNRHIQLIAIGGAIGTGLFMGSGKTISLAGPSIIFVYMIIGFMLFFVMRAMGELLLSNLEYKSFSDFASDLLGPWAGYFTGWTYWFCWVVTGMADVVAITAYAQFWFPDLSDWVASLAVIVLLLTLNLATVKMFGEMEFWFAMIKIVAIVSLIVVGLVMVAMHFQSPTGVEASFAHLWNDGGWFPKGLSGFFAGFQIAVFAFVGIELVGTTAAETKDPEKSLPRAINSIPIRIIMFYVFALIVIMSVTPWSSVVPEKSPFVELFVLVGLPAAASVINFVVLTSAASSANSGVFSTSRMLFGLAQEGVAPKAFAKLSKRAVPAKGLTFSCICLLGGVVMLYVNPSVIGAFTMITTVSAILFMFVWTIILCSYLVYRKQRPHLHEKSIYKMPLGKLMCWVCMAFFVFVVVLLTLEDDTRQALLVTPLWFIALGLGWLFIGKKRAAELRK [P0AAE0]	4.28 ± 0.25 h	3.4 ± 0.0052 h	3.26 ± 0.38 h	2.95 ± 0.22 h	3.33 ± 0.25 h	3.28 ± 0.5 h	–	8.36 ± 0.32 h	3.26 ± 0.58 h	5 ± 0.22 h	4.74 ± 0.37 h	6.57 ± 0.66 h
